We go through 167 variants from the RNAGym collection of RNA variant scans (doi:10.7554/elife.90254).

B1: LINE1-full (parent)
chain: UACGUAGGUGGUUUUCCCCUGAUAGUGCUAAGGGGGCCUGGAAGUUUGGACUGGGCAGAGCUCAACACAGCGUGGCAAAGUGGCUGUGGCUAGACUGCCUCUCUGGAUUCCUCGUCACUCAGCAGGGCAUCUCUGAGAGAAAUGCC

The variants in this series derive from B1. As to the kind of experiment: self-cleavage, relative activity (ratio to wild type); higher = more cleavage; in vitro, sequencing; the parent is a self-cleaving ribozyme.
Regarding A107U A117G, the self-cleavage came out at 1.34.

In the case of A107G C110A, the self-cleavage is 1.13.

Turning to C110A G139C, the self-cleavage stood at 1.08.

For the variant C110A G139A, the self-cleavage stood at 1.17.

Consider A107G G135A, for which the self-cleavage is 1.64.

As to C110G A129G, the self-cleavage is 1.36.

In the case of A107G A124G, the self-cleavage was 0.96.

In the case of U109C C123U, the self-cleavage turned out to be 1.22.

U109C G126A: the self-cleavage was 1.83.

U108C C113A: the self-cleavage came to 1.45.

With A107U A136G, the self-cleavage is 1.92.

In the case of U109A C123U, the self-cleavage came to 1.34.

With U108C A138G, the self-cleavage is 1.8.

In the case of U109C A121C, the self-cleavage came out at 0.99.

Consider U109C A121G, for which the self-cleavage turned out to be 1.58.

Regarding U108A A124G, the self-cleavage stood at 1.55.

As for U108A A136G, the self-cleavage came to 0.53.

For the variant U108A A136U, the self-cleavage stood at 1.24.

As for A107U U112A, the self-cleavage was determined as 2.03.

Consider U108C G127A, for which the self-cleavage is 1.64.

For the variant A107U A121G, the self-cleavage is 1.62.

On to A107G A138G, for which the self-cleavage came to 1.42.

Consider U109C C111U, for which the self-cleavage stood at 1.31.

A107G C116A: the self-cleavage was 1.71.

In the case of U109C U130C, the self-cleavage stood at 1.49.

With U109C U130A, the self-cleavage amounted to 1.24.

A107G U119A: the self-cleavage was determined as 1.91.

With A107G U119G, the self-cleavage turned out to be 0.84.

A107G U119C: the self-cleavage is 1.31.

In the case of A107U A129G, the self-cleavage is 2.12.

Regarding A107U A129U, the self-cleavage was found to be 1.86.

Take A107G U109C: the self-cleavage amounted to 1.14.

Turning to U108C A141G, the self-cleavage was determined as 1.65.

Turning to U109A C131A, the self-cleavage was 1.59.

As for U109A A140U, the self-cleavage was 1.22.

On to U108A A142G, for which the self-cleavage was determined as 1.55.

As to A107G C118U, the self-cleavage was found to be 1.56.

For A107G A136U, the self-cleavage stood at 1.82.

For the variant U108A A129G, the self-cleavage is 0.99.

Turning to A107U A141G, the self-cleavage came out at 1.52.

Regarding G106U A117G, the self-cleavage was determined as 1.22.

In the case of U108C U119C, the self-cleavage came to 2.

With U108A U130A, the self-cleavage amounted to 0.38.

U109G A124G: the self-cleavage was determined as 1.04.

Regarding G106U U108C, the self-cleavage stood at 1.32.

In the case of U109A U143A, the self-cleavage amounted to 1.75.

U109A U143C: the self-cleavage worked out at 1.8.

Turning to A107C U115C, the self-cleavage was found to be 1.38.

In the case of A107G U108C, the self-cleavage turned out to be 1.42.

In the case of U109G G127A, the self-cleavage was 1.53.

For the variant C110A U112C, the self-cleavage came to 1.56.

As for A107U C113U, the self-cleavage was 0.69.

For U108C C120A, the self-cleavage is 1.45.

For G106U U130C, the self-cleavage stood at 1.29.

For U109C G114U, the self-cleavage was 1.33.

Turning to U109A U130C, the self-cleavage was 1.54.

For the variant A107C A117U, the self-cleavage came out at 2.03.

In the case of U108G A121U, the self-cleavage worked out at 1.86.

For the variant A107C U130C, the self-cleavage stood at 0.

In the case of U108C C146U, the self-cleavage is 0.63.

With U109C C113U, the self-cleavage is 1.28.

On to U109C C113A, for which the self-cleavage is 0.99.

On to A107G G126U, for which the self-cleavage was found to be 1.48.

A107G G126C: the self-cleavage was 2.78.

Turning to U108G U112C, the self-cleavage stood at 2.58.

Take A107G A142U: the self-cleavage is 0.74.

On to G106U U134C, for which the self-cleavage was determined as 0.75.

As to U109C C116U, the self-cleavage came out at 1.5.

Take U108C C110A: the self-cleavage amounted to 1.49.

With U109C U115A, the self-cleavage turned out to be 0.82.

Consider U109C U115C, for which the self-cleavage came out at 1.22.

On to U108G U115C, for which the self-cleavage is 1.58.

With U109A G126A, the self-cleavage amounted to 1.34.

A107G A121U: the self-cleavage amounted to 1.28.

In the case of U109C U132C, the self-cleavage was 1.03.

Turning to U109C U132A, the self-cleavage came to 1.14.

As to U109A A121G, the self-cleavage amounted to 1.82.

As for A107U G127A, the self-cleavage is 0.93.

As for A107U C146U, the self-cleavage is 1.21.

For C110A, the self-cleavage was determined as 1.35.

Consider C110G, for which the self-cleavage is 1.04.

C110U: the self-cleavage came out at 1.51.

Turning to A107G A129G, the self-cleavage turned out to be 1.63.

Turning to U109A A142G, the self-cleavage was 1.39.

Turning to A107G U115G, the self-cleavage was determined as 0.

For U109A U119A, the self-cleavage is 1.36.

Consider U109C U134A, for which the self-cleavage came to 0.22.

Take U109C A136U: the self-cleavage was found to be 1.45.

Turning to A107C A129U, the self-cleavage was found to be 2.42.

Take U108C A121G: the self-cleavage was 1.68.

Consider U108C A121U, for which the self-cleavage is 2.15.

On to A107G U130C, for which the self-cleavage was found to be 2.26.

As to G106U A136U, the self-cleavage is 0.83.

U108C A142G: the self-cleavage stood at 1.94.

Turning to U109C A142C, the self-cleavage is 1.45.

Take U109C A142G: the self-cleavage came out at 0.77.

On to U109C A142U, for which the self-cleavage was 1.49.

Turning to U108C U109C, the self-cleavage came to 1.51.

Take A107C A136G: the self-cleavage amounted to 1.73.

Turning to A107C A136U, the self-cleavage turned out to be 1.2.

In the case of A107U A138G, the self-cleavage stood at 1.71.

With C110A A140G, the self-cleavage was 1.44.

Turning to U108A U115C, the self-cleavage turned out to be 1.52.

On to U108C U134G, for which the self-cleavage turned out to be 2.43.

For the variant G106U U112C, the self-cleavage came out at 0.82.

As to C110A U119C, the self-cleavage stood at 1.51.

For U109A A141G, the self-cleavage was determined as 1.76.

Take A107G A140G: the self-cleavage amounted to 1.87.

Take A107C U119C: the self-cleavage came to 2.19.

In the case of A107G G125U, the self-cleavage is 1.96.

With U108A A138G, the self-cleavage was determined as 1.79.

Regarding U108C A117C, the self-cleavage is 2.24.

On to U108C A117G, for which the self-cleavage was found to be 1.62.

As to A107G G139A, the self-cleavage was determined as 1.19.

As for A107G G139U, the self-cleavage came out at 2.42.

As to U108A A117G, the self-cleavage was determined as 1.97.

In the case of U109C A138G, the self-cleavage was 1.69.

As for U108C U130G, the self-cleavage was 1.02.

U108C U130C: the self-cleavage turned out to be 1.66.

For the variant U108G U130A, the self-cleavage worked out at 0.77.

On to U109G C145A, for which the self-cleavage stood at 0.34.

Take U108C A136G: the self-cleavage was 1.83.

As to U108C U115C, the self-cleavage came to 1.86.

Regarding U109C U119A, the self-cleavage worked out at 0.7.

In the case of U109C U119C, the self-cleavage is 1.61.

As to U108A U143C, the self-cleavage worked out at 1.32.

Turning to U108C C145A, the self-cleavage was 1.47.

Consider U108C C145G, for which the self-cleavage came out at 2.49.

For U109C A124G, the self-cleavage stood at 0.78.

Regarding A107U U130C, the self-cleavage stood at 2.08.

For C110A A138G, the self-cleavage stood at 0.95.

On to A107U U119C, for which the self-cleavage was determined as 2.16.

Turning to U109G A121G, the self-cleavage came out at 0.

Regarding U109C U143G, the self-cleavage was found to be 0.87.

In the case of U109C U143A, the self-cleavage was determined as 1.18.

As for G106U A141G, the self-cleavage was 0.83.

Consider A107U U134G, for which the self-cleavage was found to be 1.9.

In the case of U108C U143G, the self-cleavage stood at 1.23.

As to U108C U143C, the self-cleavage came to 1.75.

With U108C A124C, the self-cleavage turned out to be 1.57.

Take U109A A117G: the self-cleavage was determined as 1.42.

U109A A117U: the self-cleavage is 1.51.

In the case of U108C C111A, the self-cleavage turned out to be 1.76.

Regarding U108C A140G, the self-cleavage was found to be 1.74.

For A107U A142G, the self-cleavage is 2.36.

In the case of A107C U143A, the self-cleavage was 1.79.

On to A107U U109A, for which the self-cleavage was found to be 1.98.

With A107U U109C, the self-cleavage is 1.58.

Consider U108C C123U, for which the self-cleavage amounted to 2.22.

Regarding U108C G126U, the self-cleavage amounted to 2.03.

For the variant A107G U143A, the self-cleavage was determined as 1.51.

With U109C C133U, the self-cleavage amounted to 1.37.

Take A107G G137U: the self-cleavage was 2.3.

As to A107U U115C, the self-cleavage came to 1.55.

As to A107G U132A, the self-cleavage is 0.88.

In the case of U108C G135A, the self-cleavage is 1.6.

Consider U109G U119C, for which the self-cleavage came out at 0.49.

On to U108C C131U, for which the self-cleavage came to 2.2.

Turning to A107G C113U, the self-cleavage came out at 1.39.

Take A107G C113A: the self-cleavage was determined as 1.94.

For the variant U109A A124U, the self-cleavage was determined as 1.61.

With G106U A138G, the self-cleavage turned out to be 0.99.

With A107G G114A, the self-cleavage was found to be 1.18.

In the case of U109G C128U, the self-cleavage is 1.17.

As for A107G C145U, the self-cleavage came to 1.45.

As for U108G G122C, the self-cleavage was found to be 0.

With U108A U132G, the self-cleavage was 2.7.
